From paper PMC9352680, “A comprehensive thermodynamic model for RNA binding by the Saccharomyces cerevisiae Pumilio protein PUF4”

T1: PUF4 RNA-binding domain (Saccharomyces cerevisiae, UniProt P25339 537-888)
T1 sequence: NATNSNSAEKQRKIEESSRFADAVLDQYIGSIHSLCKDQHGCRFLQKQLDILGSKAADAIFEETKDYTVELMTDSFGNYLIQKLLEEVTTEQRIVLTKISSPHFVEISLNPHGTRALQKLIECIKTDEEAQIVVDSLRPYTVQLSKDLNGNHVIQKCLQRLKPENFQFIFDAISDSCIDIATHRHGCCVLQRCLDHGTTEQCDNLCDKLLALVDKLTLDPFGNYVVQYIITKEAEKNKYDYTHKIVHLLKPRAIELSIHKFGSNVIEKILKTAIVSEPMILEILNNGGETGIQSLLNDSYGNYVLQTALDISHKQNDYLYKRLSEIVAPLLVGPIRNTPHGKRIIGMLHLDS

B1: Ic_S1_P5E.1_K5.1_C5.1_H5.1_A5.1_[T5A]_[T6C]_[A7C]_F5.1_[T8G]_[T9G]_[A10T]_T5.1 (ssRNA)
RNA: UCUCUUUGUAACCGGUUCUCUU
B2: Ic_S1_P5E.1_K5.1_C5.1_H5.1_A5.1_[T5G]_[T6C]_[A7T]_F5.1_[T8G]_[T9G]_[A10T]_T5.1 (ssRNA)
RNA: UCUCUUUGUAGCUGGUUCUCUU
B3: Ic_S1_P5E.1_K5.1_C5.1_H5.1_A5.1_[T5C]_[A7T]_F5.1_[T8G]_[A10T]_T5.1 (ssRNA)
RNA: UCUCUUUGUACUUGUUUCUCUU
B4: Ic_S1_P5E.1_K5.1_C5.1_H5.1_A5.1_[T5A]_F5.1_[T8A]_[A10G]_T5.1 (ssRNA)
RNA: UCUCUUUGUAAUAAUGUCUCUU
B5: Ic_S1_P5E.1_K5.1_C5.1_H5.1_A5.1_[T5C]_[T6A]_F5.1_[T8A]_[T9A]_[A10C]_T5.1 (ssRNA)
RNA: UCUCUUUGUACAAAACUCUCUU
B6: Ib_S1_P3E.1_K3.1_C3.1_H3.1_[T1C]_A3.1_[T5C]_F3.1_T3.1 (ssRNA)
RNA: UCUCUUCGUACAUAUCUCUU
B7: Ic_S1_P5E.1_K5.1_C5.1_H5.1_A5.1_[T5A]_[T6C]_[A7C]_F5.1_[T8G]_T5.1 (ssRNA)
RNA: UCUCUUUGUAACCGUAUCUCUU
B8: Ic_S1_P5E.1_K5.1_C5.1_H5.1_A5.1_[T5C]_[T6C]_F5.1_[T8G]_[T9C]_[A10G]_T5.1 (ssRNA)
RNA: UCUCUUUGUACCAGCGUCUCUU
B9: Ic_S1_P5E.1_K5.1_C5.1_H5.1_A5.1_[T5G]_[T6C]_[A7T]_F5.1_[T8G]_[T9C]_[A10T]_T5.1 (ssRNA)
RNA: UCUCUUUGUAGCUGCUUCUCUU
B10: Ic_S1_P5E.1_K5.1_C5.1_H5.1_A5.1_[T6G]_F5.1_[T8C]_[T9C]_[A10C]_T5.1 (ssRNA)
RNA: UCUCUUUGUAUGACCCUCUCUU
B11: Ic_S1_P5E.1_K5.1_C5.1_H5.1_A5.1_[T5A]_[T6C]_[A7C]_F5.1_[T8C]_[T9G]_T5.1 (ssRNA)
RNA: UCUCUUUGUAACCCGAUCUCUU
B12: Ic_S1_P5E.1_K5.1_C5.1_H5.1_A5.1_[T5C]_[A7C]_F5.1_[A10T]_T5.1 (ssRNA)
RNA: UCUCUUUGUACUCUUUUCUCUU
B13: Ic_S1_P5E.1_K5.1_C5.1_H5.1_A5.1_[T6C]_F5.1_[T8A]_[A10G]_T5.1 (ssRNA)
RNA: UCUCUUUGUAUCAAUGUCUCUU
B14: Ic_S1_P5E.1_K5.1_C5.1_H5.1_A5.1_[T5C]_[T6G]_[A7T]_F5.1_[T8G]_[T9C]_[A10T]_T5.1 (ssRNA)
RNA: UCUCUUUGUACGUGCUUCUCUU
B15: Ic_S1_P5E.1_K5.1_C5.1_H5.1_A5.1_[T5G]_[T6C]_F5.1_[T8C]_[A10T]_T5.1 (ssRNA)
RNA: UCUCUUUGUAGCACUUUCUCUU
B16: Ib_S1_P3E.1_K3.1_C3.1_H3.1_[T1G]_A3.1_[T5C]_F3.1_T3.1 (ssRNA)
RNA: UCUCUUGGUACAUAUCUCUU
B17: Ic_S1_P5E.1_K5.1_C5.1_H5.1_A5.1_[T6G]_[A7C]_F5.1_[T8C]_[T9A]_[A10T]_T5.1 (ssRNA)
RNA: UCUCUUUGUAUGCCAUUCUCUU
B18: Ic_S1_P5E.1_K5.1_C5.1_H5.1_A5.1_[T5C]_[T6C]_[A7T]_F5.1_[T9A]_[A10G]_T5.1 (ssRNA)
RNA: UCUCUUUGUACCUUAGUCUCUU
B19: Ic_S1_P5E.1_K5.1_C5.1_H5.1_A5.1_[T6C]_[A7T]_F5.1_[T9C]_[A10C]_T5.1 (ssRNA)
RNA: UCUCUUUGUAUCUUCCUCUCUU
B20: Ic_S1_P5E.1_K5.1_C5.1_H5.1_A5.1_[T5G]_[T6C]_[A7C]_F5.1_[T8C]_[T9A]_T5.1 (ssRNA)
RNA: UCUCUUUGUAGCCCAAUCUCUU
B21: Ic_S1_P5E.1_K5.1_C5.1_H5.1_A5.1_[T5C]_[A7C]_F5.1_[T8A]_[T9C]_[A10G]_T5.1 (ssRNA)
RNA: UCUCUUUGUACUCACGUCUCUU
B22: Ic_S1_P5E.1_K5.1_C5.1_H5.1_A5.1_[T5A]_[A7T]_F5.1_[T8C]_[T9A]_[A10C]_T5.1 (ssRNA)
RNA: UCUCUUUGUAAUUCACUCUCUU
B23: Ic_S1_P5E.1_K5.1_C5.1_H5.1_A5.1_[A7G]_F5.1_[T8G]_[A10T]_T5.1 (ssRNA)
RNA: UCUCUUUGUAUUGGUUUCUCUU
B24: Ic_S1_P5E.1_K5.1_C5.1_H5.1_A5.1_[T5A]_[T6A]_[A7T]_F5.1_[T8A]_[T9C]_[A10T]_T5.1 (ssRNA)
RNA: UCUCUUUGUAAAUACUUCUCUU
B25: Ic_S1_P5E.1_K5.1_C5.1_H5.1_A5.1_[T5A]_[A7C]_F5.1_[T8A]_[A10C]_T5.1 (ssRNA)
RNA: UCUCUUUGUAAUCAUCUCUCUU
B26: Ic_S1_P5E.1_K5.1_C5.1_H5.1_A5.1_[A7C]_F5.1_[T8C]_[T9A]_T5.1 (ssRNA)
RNA: UCUCUUUGUAUUCCAAUCUCUU
B27: Ic_S1_P5E.1_K5.1_C5.1_H5.1_A5.1_[T5C]_[T6C]_F5.1_[T8C]_[T9C]_[A10G]_T5.1 (ssRNA)
RNA: UCUCUUUGUACCACCGUCUCUU
B28: Ib_S1_P3E.1_K3.1_C3.1_H3.1_[T3C]_[A4G]_A3.1_F3.1_T3.1 (ssRNA)
RNA: UCUCUUUGCGUAUAUCUCUU
B29: Ic_S1_P5E.1_K5.1_C5.1_H5.1_A5.1_[T6C]_[A7T]_F5.1_[T8C]_[T9G]_T5.1 (ssRNA)
RNA: UCUCUUUGUAUCUCGAUCUCUU
B30: Ic_S1_P5E.1_K5.1_C5.1_H5.1_A5.1_[T6A]_[A7T]_F5.1_[T9C]_[A10C]_T5.1 (ssRNA)
RNA: UCUCUUUGUAUAUUCCUCUCUU
B31: Ic_S1_P5E.1_K5.1_C5.1_H5.1_A5.1_[T5A]_[T6C]_F5.1_[T8C]_[T9C]_T5.1 (ssRNA)
RNA: UCUCUUUGUAACACCAUCUCUU
B32: Ib_S1_P3E.1_K3.1_C3.1_H3.1_[T1A]_A3.1_[T5C]_F3.1_T3.1 (ssRNA)
RNA: UCUCUUAGUACAUAUCUCUU

What follows are binders tested against T1, PUF4 RNA-binding domain (assay: Mg; RNA-MaP; 20 mM Na-HEPES pH 7.4, 30 mM KOAc, 0.75 mM MgCl2, 0.1% Tween-20, 5% glycerol, 0.1 mg/mL BSA, 2 mM DTT; 25 C; 0.0125-409.6 nM protein). Details: tags: N-His6-TEV cleaved; C-SNAP kept, Cy3B-labelled; label: tethered on chip by stalled RNA polymerase.
B1 showed a Kd greater than 2300 nM. B2 gave a Kd greater than 2300 nM. B3 was tested, and the Kd was 87.4 nM. Work on B4 yielded a Kd of 521 nM. B5 showed a Kd of 45.2 nM. For B6, the Kd was 1050 nM. B7 gave a Kd of 52.9 nM. B8 was tested, and the Kd was 1180 nM. B9 gave a Kd of 2150 nM. Binder B10 has a Kd of 2180 nM. B11 gave a Kd of 1950 nM. Binder B12 has a Kd of 23.1 nM. Binder B13 has a Kd of 354 nM. B14 was tested, and the Kd was 297 nM. In the case of B15, the Kd is reported as 1000 nM. For B16, the Kd was 1550 nM. In the case of B17, the Kd is reported as 100 nM. Work on B18 yielded a Kd of 2.41 nM. B19 was tested, and the Kd was 74.7 nM. Binder B20 has a Kd greater than 2300 nM. With B21 the Kd was 1100 nM. B22 showed a Kd of 734 nM. B23 showed a Kd of 711 nM. In the case of B24, the Kd is reported as 37.4 nM. B25 gave a Kd of 482 nM. For B26, the Kd was 526 nM. With B27 the Kd was 821 nM. With B28 the Kd was greater than 2300 nM. In the case of B29, the Kd is reported as 463 nM. With B30 the Kd was 5.93 nM. In the case of B31, the Kd is reported as 111 nM. Work on B32 yielded a Kd of 1760 nM.
